Reference: US20040197334A1 (TECHNION RESEARCH AND DEVELOPMENT FOUNDATION, published 2004)
“And” between values parts separate entries of the source, which are not always exact repeats. Identical values can stand only once. No end group written: not given here.

Key:
streptavidin = streptavidin (UniProt P22629 37-163); experiment: ELISA, FIG. 1b
[1] = biological target: T1, human P-glycoprotein (Pgp), 170 kDa, encoded by the mdr1 gene, on the surface of MDR human carcinoma cells … (human, UniProt P08183 1-1280); experiment: cell-based or functional assay
T1 sequence (P08183 whole entry): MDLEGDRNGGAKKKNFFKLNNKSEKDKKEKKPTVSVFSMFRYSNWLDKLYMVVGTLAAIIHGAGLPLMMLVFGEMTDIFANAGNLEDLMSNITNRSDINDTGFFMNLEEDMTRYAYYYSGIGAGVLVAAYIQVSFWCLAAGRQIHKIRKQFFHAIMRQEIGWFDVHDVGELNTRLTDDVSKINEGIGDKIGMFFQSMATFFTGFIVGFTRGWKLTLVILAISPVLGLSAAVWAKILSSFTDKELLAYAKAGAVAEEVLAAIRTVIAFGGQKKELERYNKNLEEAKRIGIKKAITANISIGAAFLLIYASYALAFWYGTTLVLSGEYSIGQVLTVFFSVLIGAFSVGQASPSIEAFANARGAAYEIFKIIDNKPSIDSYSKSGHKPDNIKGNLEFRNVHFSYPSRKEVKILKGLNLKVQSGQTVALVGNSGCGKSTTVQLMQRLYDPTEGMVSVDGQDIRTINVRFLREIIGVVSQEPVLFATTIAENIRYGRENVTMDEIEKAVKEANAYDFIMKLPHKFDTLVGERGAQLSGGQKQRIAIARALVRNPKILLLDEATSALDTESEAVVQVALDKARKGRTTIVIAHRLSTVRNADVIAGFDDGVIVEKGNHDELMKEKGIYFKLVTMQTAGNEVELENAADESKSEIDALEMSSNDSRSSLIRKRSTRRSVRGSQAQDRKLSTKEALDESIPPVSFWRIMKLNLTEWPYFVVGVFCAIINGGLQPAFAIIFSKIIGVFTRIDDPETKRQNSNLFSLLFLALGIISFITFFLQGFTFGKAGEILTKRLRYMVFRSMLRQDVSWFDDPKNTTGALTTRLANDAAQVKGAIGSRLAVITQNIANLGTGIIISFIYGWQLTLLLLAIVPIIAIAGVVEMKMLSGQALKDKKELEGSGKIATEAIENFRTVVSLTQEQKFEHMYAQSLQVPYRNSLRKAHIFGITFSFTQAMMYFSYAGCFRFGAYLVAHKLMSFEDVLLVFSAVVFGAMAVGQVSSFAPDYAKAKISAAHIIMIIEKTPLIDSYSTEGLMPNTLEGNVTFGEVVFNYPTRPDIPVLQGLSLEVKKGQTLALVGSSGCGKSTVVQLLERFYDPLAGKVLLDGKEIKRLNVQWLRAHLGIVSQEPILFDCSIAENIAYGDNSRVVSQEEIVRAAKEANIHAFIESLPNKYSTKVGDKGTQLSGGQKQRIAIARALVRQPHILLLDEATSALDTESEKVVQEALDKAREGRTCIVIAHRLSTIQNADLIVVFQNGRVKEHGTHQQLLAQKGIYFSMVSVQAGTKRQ

[2] = biological target: T1, human P-glycoprotein (Pgp), 170 kDa, …; experiment: flow cytometry on MDR, Pgp-overexpressing 2780^ADR cells, A2 scFv 50 µg/ml
[3] = biological target: T2, biotinylated target Pgp-derived peptide having the amino acid sequence of SEQ ID NO:1 (GEMTDIFANAGNL) (human, also: biotinylated, position not given here); experiment: saturation ELISA on plate-bound biotinylated peptide; the filing calls the value the affinity constant
T2 construct: also called target peptide
T2 peptide: GEMTDIFANAGNL

[4] = biological target: T2, biotinylated target Pgp-derived peptide …; experiment: competition radioimmunoassay, cold A2 scFv against [125I]-labeled A2 scFv on plate-bound peptide; the filing calls the value the affinity constant

Sequence of streptavidin (P22629 37-163 limits assumed): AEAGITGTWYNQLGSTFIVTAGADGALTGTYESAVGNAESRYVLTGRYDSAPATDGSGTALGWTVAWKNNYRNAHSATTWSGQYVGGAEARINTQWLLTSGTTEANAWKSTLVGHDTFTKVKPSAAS

B1: A2 single-chain Fv (scFv) (scFv)
scFv: QVQLQQSGPDLVKPGASVKISCKASGYSFTGYYMHWVKQSHGKSLEWIGRANPNNGGTSYNQKFKGKAILTVDKSSSTAYMELRSLTSEDSAVYYCARWDGAYWGQGTLVTVSSGGGGSGGGGSGGGGSDVVMTQTPLSLPVSLGDQASISCRSSQSIVHSNGNTYLEWYLQKPGQSPKLLIYKVSNRFSGVPDRFSGSGSGTDFTLKISRVEAEDLGVYYCFQGSHVPFTFGSGTKLELKEQKLISEEDLNHHHHHH
notes: Soluble monomeric scFv of about 30 kDa, expressed in E. coli BL21 and purified from the periplasm; In the radioimmunoassay the tracer was labeled with 125I by the Bolton-Hunter reagent; also called A2 scFv; A2 scFv antibody
streptavidin
  binding result: no binding
[1]
  concentration of A2 scFv that inhibits 50% drug-efflux activity (IC50), calcein accumulation in 2780^ADR cells: ~65 µg/ml and ~2.6 µM
[2]
  fold increase in fluorescent intensity: 10 fold
[3]
  EC50: ~150 nM
[4]
  IC50: ~130 nM
